Changes are numbered by the printed parent chain. In names and notes the source's numbering stands.
Columns and labels:
[1] = biological target: Mvp1 with an engineered PreScission site after residue 99, after cleavage (N-terminal sequence removed) (S. cerevisiae) (UniProt P40959); test: SEC-MALS; Superdex 200 10/300 GL, 20 mM TRIS/Cl pH 7.4, 250 mM NaCl unless stated (full-length Mvp1 also at 50 and 150 mM NaCl), 1.93 mM beta-mercaptoethanol; 500 ul of 20-21.2 uM protein injected (14 uM for Mvp1 Δ2-78); 0.3 ml/min
Mvp1 = biological target: T1, Mvp1 (Saccharomyces cerevisiae, UniProt P40959); test: liposome sedimentation, SDS-PAGE; type: binding; conditions: 5% PI3P in 95% DOPS liposomes (100 nm, 0.1 mg/ml); 1.2 µM protein; 20 mM Tris pH 7.5, 250 mM NaCl; 21 °C; DOPS-only liposomes as control
T1 construct: full-length, codons 1-511; E. coli; N-terminal His6-thrombin fusion or C-terminal MBP fusion cut off with PreScission; tetramer
T1 sequence (P40959 1-511): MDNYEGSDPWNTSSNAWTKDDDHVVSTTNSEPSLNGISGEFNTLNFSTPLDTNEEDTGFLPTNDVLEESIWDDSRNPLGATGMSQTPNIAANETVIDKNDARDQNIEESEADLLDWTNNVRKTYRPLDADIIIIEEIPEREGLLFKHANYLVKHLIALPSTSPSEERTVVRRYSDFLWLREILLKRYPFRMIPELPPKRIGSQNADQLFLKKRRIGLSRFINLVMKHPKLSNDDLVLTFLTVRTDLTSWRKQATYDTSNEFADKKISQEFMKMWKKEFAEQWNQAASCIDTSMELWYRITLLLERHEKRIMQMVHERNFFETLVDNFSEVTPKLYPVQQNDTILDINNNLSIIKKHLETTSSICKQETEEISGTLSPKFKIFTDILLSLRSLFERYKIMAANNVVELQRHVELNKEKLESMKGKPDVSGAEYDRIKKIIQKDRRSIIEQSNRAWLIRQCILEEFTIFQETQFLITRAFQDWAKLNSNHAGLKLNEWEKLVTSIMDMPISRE

[2] = biological target: the molecule itself; test: SEC-MALS; Superdex 200 10/300 GL, 20 mM TRIS/Cl pH 7.4, 250 mM NaCl unless stated (full-length Mvp1 also at 50 and 150 mM NaCl), 1.93 mM beta-mercaptoethanol; 500 ul of 20-21.2 uM protein injected (14 uM for Mvp1 Δ2-78); 0.3 ml/min
[3] = biological target: the molecule itself; test: cryo-EM structure; 2d and 3d classification of single particles of Mvp1 Mut1, ~5 uM protein, intermediate resolution (~7.7-8.2 Å)

Molecule: Mvp1 with an engineered PreScission site after residue 99, after cleavage (N-terminal sequence removed) (from UniProt P40959 100-511) (domain or fragment)
- stoichiometry N [1]: 2

Molecule: CCCCCCCC/C=C\CCCCCCCC(=O)OC[C@H](COP(=O)(O)O[C@@H]1[C@H](O)[C@H](OP(=O)(O)O)[C@@H](O)[C@H](O)[C@H]1O)OC(=O)CCCCCCC/C=C\CCCCCCCC [PI3P]
- liposome sedimentation, SDS-PAGE (Mvp1): purified Mvp1, like SNX8 and several other SNX–BARs, bound to liposomes containing PI3P

B1: Full-length Mvp1 (codons 1-511) (natural protein, S. cerevisiae, UniProt P40959 1-511, looked up)
chain: T1 sequence (P40959 1-511)
notes: Mvp1, S. cerevisiae sorting nexin with PX and BAR domains, codons 1-511, amplified from genomic DNA of W303A/alpha diploids; Two purification strategies: N-terminal His6 fusion with thrombin site (no cleavage described) or C-terminal MBP fusion cleaved with PreScission; also called wild type; SNX-BAR Mvp1; source: E. coli BL21-Codon Plus(DE3)-RIPL, purified (Ni-IDA or amylose resin, anion …)
- stoichiometry N [2]: 4

B2: Mvp1 198KRI→AAA (natural protein, S. cerevisiae, UniProt P40959 1-511, looked up)
chain: T1 sequence (P40959 1-511) with K198A, R199A, I200A
notes: Mvp1, S. cerevisiae, codons 1-511 with residues 198-200 KRI changed to AAA in the PX PPII loop; also called Mut1; Mvp1 Mut1; source: E. coli BL21-Codon Plus(DE3)-RIPL, purified; not shown: His6 (pET-15b construct); MBP (pMW-variant construct; alternative to the His6 construct), C-terminal, cleaved
- stoichiometry N [3]: 2

B3: Mvp1 Δ2-78 (domain or fragment, S. cerevisiae, UniProt P40959 1-511, looked up)
chain: MGATGMSQTPNIAANETVIDKNDARDQNIEESEADLLDWTNNVRKTYRPLDADIIIIEEIPEREGLLFKHANYLVKHLIALPSTSPSEERTVVRRYSDFLWLREILLKRYPFRMIPELPPKRIGSQNADQLFLKKRRIGLSRFINLVMKHPKLSNDDLVLTFLTVRTDLTSWRKQATYDTSNEFADKKISQEFMKMWKKEFAEQWNQAASCIDTSMELWYRITLLLERHEKRIMQMVHERNFFETLVDNFSEVTPKLYPVQQNDTILDINNNLSIIKKHLETTSSICKQETEEISGTLSPKFKIFTDILLSLRSLFERYKIMAANNVVELQRHVELNKEKLESMKGKPDVSGAEYDRIKKIIQKDRRSIIEQSNRAWLIRQCILEEFTIFQETQFLITRAFQDWAKLNSNHAGLKLNEWEKLVTSIMDMPISRE
notes: source: E. coli BL21-Codon Plus(DE3)-RIPL, purified; not shown: His6 (pET-15b construct); MBP (pMW-variant construct; alternative to the His6 construct), C-terminal, cleaved
- stoichiometry N [2]: 2

B4: Mvp1 Δ2-100 (domain or fragment, S. cerevisiae, UniProt P40959 1-511, looked up)
chain: MARDQNIEESEADLLDWTNNVRKTYRPLDADIIIIEEIPEREGLLFKHANYLVKHLIALPSTSPSEERTVVRRYSDFLWLREILLKRYPFRMIPELPPKRIGSQNADQLFLKKRRIGLSRFINLVMKHPKLSNDDLVLTFLTVRTDLTSWRKQATYDTSNEFADKKISQEFMKMWKKEFAEQWNQAASCIDTSMELWYRITLLLERHEKRIMQMVHERNFFETLVDNFSEVTPKLYPVQQNDTILDINNNLSIIKKHLETTSSICKQETEEISGTLSPKFKIFTDILLSLRSLFERYKIMAANNVVELQRHVELNKEKLESMKGKPDVSGAEYDRIKKIIQKDRRSIIEQSNRAWLIRQCILEEFTIFQETQFLITRAFQDWAKLNSNHAGLKLNEWEKLVTSIMDMPISRE
notes: Mvp1, S. cerevisiae, codons 1-511 lacking residues 2-100; The purification told for this construct is that of the C-terminal MBP fusion, cleaved with PreScission; residues of the cleavage site probably remain at the C-terminus (surmised); also called Mvp1 lacking its N-terminus; source: E. coli BL21-Codon Plus(DE3)-RIPL, purified (amylose resin, anion exchange, SEC, PreScission cleavage, Superdex …)
- stoichiometry N [2]: 2
